In patent publication US20120148657A1, “Lipoxygenase and Its Use in Wound Healing” (priority 2009, published 2012):

B1: AmbLOXe: epidermal lipoxygenase from axolotl, Seq. ID. Nos. 1 and 2, EMBL Accession No. EU814616; tested by expression plasmid transfection (protein, listed as Ambystoma mexicanum)
chain: MVDEYRIKEDRDLGEILLIRLHKGPFSIFPEDNWYCMYVTVTSPGGVIYHFPCYRWIEGYPTVELAEGTAMLSSASNLHVTLKKQRESDLEQRRKVYRWKVYHPSFPKCIDVANNDELDKDAKYSITKTVHFVINKNVSNIAIKLKGFDGRQESWKSFDELKRVYWTLKTAKSEYVSHHWKEDAFFGYQYLNGPDPTLIKRCNKIPGNFPVTDEMVSYSLGASTSLEKELQKGNIYIVDHKMMEGLRANVLNGKQQYMAAPLCLFYRTPKDEVIPLAIQLNQTPGSETPLFLPSDNEWDWILAKIWVRSTSFAFHQAVSHFLRTHVFAEVFCLATLRQLPMAHPLYKLLVPHLRYTLQINVLARERLIGPGGAFDKNTAVGIAGIAELIKRDMETLKYSTLCLPENLQSREVESLPHFYYRDDGMKIWLAIESYVSGIVDYYYKSEESIQKDPELQAWVAEIFKEGFLERKSSGIPSSLETRVELIKYLTMVIFTCSAEHAAVNSGQFDFLSWMPNGPSTMRQPPPKTKGLATMESVLEALPEVGITTNIMTTVWTLSKEPGDMRPLGTYPDEHFTEEGPKQCIRAFQERLSEISREIEHRNASLPIKYNYMNPKVIENSVSI
B2: huLOX: human epidermal lipoxygenase (human 12R LOX) expressed from plasmid phuLOX, comparator (protein, UniProt O75342 1-701, looked up)
Arachidonate 12-lipoxygenase, …: MATYKVRVATGTDLLSGTRDSISLTIVGTQGESHKQLLNHFGRDFATGAVGQYTVQCPQDLGELIIIRLHKERYAFFPKDPWYCNYVQICAPNGRIYHFPAYQWMDGYETLALREATGKTTADDSLPVLLEHRKEEIRAKQDFYHWRVFLPGLPSYVHIPSYRPPVRRHRNPNRPEWNGYIPGFPILINFKATKFLNLNLRYSFLKTASFFVRLGPMALAFKVRGLLDCKHSWKRLKDIRKIFPGKKSVVSEYVAEHWAEDTFFGYQYLNGVNPGLIRRCTRIPDKFPVTDDMVAPFLGEGTCLQAELEKGNIYLADYRIMEGIPTVELSGRKQHHCAPLCLLHFGPEGKMMPIAIQLSQTPGPDCPIFLPSDSEWDWLLAKTWVRYAEFYSHEAIAHLLETHLIAEAFCLALLRNLPMCHPLYKLLIPHTRYTVQINSIGRAVLLNEGGLSAKGMSLGVEGFAGVMVRALSELTYDSLYLPNDFVERGVQDLPGYYYRDDSLAVWNALEKYVTEIITYYYPSDAAVEGDPELQSWVQEIFKECLLGRESSGFPRCLRTVPELIRYVTIVIYTCSAKHAAVNTGQMEFTAWMPNFPASMRNPPIQTKGLTTLETFMDTLPDVKTTCITLLVLWTLSREPDDRRPLGHFPDIHFVEEAPRRSIEAFRQRLNQISHDIRQRNKCLPIPYYYLDPVLIENSISI

Tests used:
epithelial Axolotl cells = test: In vitro wound healing model: proliferation of epithelial cells from Axolotl skin biopsies (Celltiter blue); type: cell-based; conditions: for Epithelial cell proliferation: 1 μM MK-886 and 60 μM NDGA, respectively, plates incubated two days, Celltiter blue fluorescence
Description: In order to investigate the influence of endogenous lipoxygenase activity on the migration and proliferation of epithelial Axolotl cells, skin biopsies with 2 mm diameter were taken form Axolotl tail skin. The skin biopsies were placed in cell culture dishes coated with bovine collagen I to allow for cell migration and proliferation in an in vitro wound healing model. The wound healing is observable by […] of epithelial cell growing from borders of the skin biopsies. The proliferation rates were determined by addition of Celltiter blue (Promega), an assay for detection of metabolic activity as an indirect measurement of cell proliferation based on Resazurin/Resofurin. Two known lipoxygenase inhibitors for the human lipoxygenase were used to examine the effect of lipoxygenase activity on cell proliferation (1 μM MK-886 and 60 μM NDGA, respectively). […] That is, the plates were incubated for two days to ensure proliferation of epidermal cells. Then, the number of metabolizing cells was determined by Resozuran-Resofurin exchange (Celltiter blue, Promega, Madison, USA). 2 μl Resozuran solution was added to each well for two hours and the fluorescence was read in a multiplate reader at 520 nm. The detected fluorescence was expressed in relative fluorescent units (RFU), means and standard deviation were calculated from triplicates with Microsoft Excel and tested for statistical significance using student's T-test. Experiments were repeated at three independent times to ensure reproducibility.

[1] = test system: transiently transfected cell populations; test: Scratch assay of transiently transfected cell populations treated with lipoxygenase inhibitor; type: cell-based, human
Experimental: (§1) The coding sequence of AmbLOXe was subcloned in frame into the mammalian expression vector pTriEx-1 (Novagen). Plasmids were purified from transformed DH5α using the GenElute plasmid purification Kit (Sigma). Human osteosarcoma cells U2-OS or human spontaneously immortalized keratinocyte cells HaCaT (ATCC) were seeded into 100 mm cell culture dishes and grown over night to 40-50% confluence. Cells were transiently transfected with Fugene6 (Roche, Mannheim, Germany) following the instructions of the manufacturer. Briefly, 18 μl of the reagent were diluted with 600 μl serum-free medium and incubated at room temperature. After 5 min 6 μg of a 1:1 mixture of pTriEx-AmbLOXe and pEGFP-C3 (Clontech), which encodes Green Fluorescent Protein (GFP), were supplemented and incubated for additional 15 min. The transfection complex was added to the cell dishes in a dropwise manner. Cells were incubated for 24 hours before being analyzed for transfection efficiency by detection of GFP positive cells in a flow cytometer (FC-500, Beckman-Coulter, Fullerton, Calif., USA). Only cell populations were used in which about 25% GFP positive cells (U2-OS) or 12% GFP positive cells (HaCaT) could be detected. The cells were seeded into a six well plate until they reached confluence. The monolayer was then wounded with a disposable plastic pipet tip (10 μl-100 μl volume). The cells ere incubated in DMEM High Glucose (Biochrom, Berlin, Germany) supplemented with 10% FCS). The scratches were documented by microphotography and incubated for 16 hours. Then the scratches were again photographed and the remaining areas were measured using CellD (Olympus) software program. All experiments were carried out in quadruplicates and repeated at four independent times. Means and standard deviation were calculated and tested for statistical significance with ANOVA followed by Bonferroni's posthoc test.
In order to determine the influence of lipoxygenase inhibitor on the transiently transfected cell populations, cells transfected with empty vector (control) and scratched cell monolayers transfected with vectors containing human 12R LOX and AmbLOXe, respectively, received an overnight treatment with NHGA.

[2] = test system: Mice having a full thickness skin wound; test: Full thickness skin wound animal model (injection of transfected murine embryonic fibroblasts); type: in vivo; conditions: for wound size: compared to human lipoxygenase, empty vector and untreated groups, C57/BR6 female mice; for wound closure (FIG. 5): determined after day 3 and day 7, transfected murine embryonic fibroblasts
Experimental: That is, murine embryonic fibroblasts were seeded in cell culture dishes to 50% confluence and were transfected with expression plasmids encoding two different types of lipoxygenase (pAmbLOXe, phuLOX), an empty vector was used as control. After 24 hours, the cells were washed and trypsinated. Cells in an amount of 100,000 cells/ml in PBS were resuspended and 200 μl cell suspension was injected into area adjacent to a wound of a full thickness skin wound. Said full thickness skin wound was prepared in advance using mice (C57/BR6 female) where the back was shaved and the skin was disinfected. Thereafter, a full thickness skin wound was set using a 8 mm biopsy punch, resulting in a 50 mm^2 defect. A control group was prepared not treated with any cell suspension. After day 3 and day 7 a photo was taken from the wound and the reduction of wound size was measured and determined statistically.

U2-OS cells = test: Scratch assay for wound closure in transfected U2-OS cells; type: cell-based, human; conditions: for perimeter size of remaining scratch area (mean value): U2-OS cell populations transfected; for perimeter size of remaining scratch area (mean value) / wound closure in scratch assay (FIG. 2): after 16 hours incubation; for scratch width reduction: U2-OS cells transfected with expression plasmid, 16 hours incubation; for wound closure in scratch assay (FIG. 2): U2-OS cells transfected
Description: To compare the effect of epidermal lipoxygenase of human and Axolotl origin, a human cell line, U2-OS was transfected with expression plasmids encoding for the two types of lipoxygenase (pAmbLOXe, phuLOX) in combination with a vector encoding for GFP (pEGFP-C3, Clontech) as a reporter for transfection efficiency. Controls were transfected with empty vector and pEGFP-C3.
as §1
A cDNA fragment coding for full-length AmbLOXe was cloned in frame into the mammalian expression vector pTriEx-1 and transfected together with an expression plasmid for EGFP into the U2-OS cell line to evaluate a possible influence of AmbLOXe expression in a mammalian model system. Only cell populations with a transfection efficiency of about 25% (U2-OS), respectively 12% (HaCaT) were used for all assays and seeded to confluent monolayers which subsequently were wounded with scratches.
The remaining scratch areas photographed after 16 hours incubation were used to determine the influence of AmbLOXe expression on mammalian cell migration. While no AmbLOXe expression could be observed in U2-OS cell populations transfected with an empty vector, and in U2-OS cell populations transfected with huLOX, AmbLOXe expression was detected in U2-OS cell populations transfected with AmbLOXe encoding plasmids. A perimeter size reduction to a mean value of 24806.26 μm in the cell populations transfected with an empty vector was found; while cell populations containing AmbLOXe expressing cells and cell populations containing cells expressing human 12R LOX reduced the photographed scratch area to mean values of 517.46 μm and 2086.86 μm, respectively.

[3] = test system: HaCaT keratinocyte cell line; test: HaCaT monolayer scratch assay (cell migration); type: cell-based, human; conditions: HaCaT populations transfected; 16 hours incubation; compared to empty vector (p=0.0035) and huLOX (p=0.028) transfected populations
Experimental: The coding sequence of AmbLOXe was subcloned in frame into the mammalian expression vector pTriEx-1 (Novagen). Plasmids were purified from transformed DH5α using the GenElute plasmid purification Kit (Sigma). Human osteosarcoma cells U2-OS or human spontaneously immortalized keratinocyte cells HaCaT (ATCC) were seeded into 100 mm cell culture dishes and grown over night to 40-50% confluence. Cells were transiently transfected with Fugene6 (Roche, Mannheim, Germany) following the instructions of the manufacturer. Briefly, 18 μl of the reagent were diluted with 600 μl serum-free medium and incubated at room temperature. […] Cells were incubated for 24 hours before being analyzed for transfection efficiency by detection of GFP positive cells in a flow cytometer (FC-500, Beckman-Coulter, Fullerton, Calif., USA). Only cell populations were used in which about 25% GFP positive cells (U2-OS) or 12% GFP positive cells (HaCaT) could be detected. […] Then the scratches were again photographed and the remaining areas were measured using CellD (Olympus) software program. […] Means and standard deviation were calculated and tested for statistical significance with ANOVA followed by Bonferroni's posthoc test. […]
As described for the transfected U2-OS populations cellular migration was determined in HaCaT monolayer scratch assays.

Molecule | Epithelial cell proliferation (epithelial Axolotl cells) | wound closure (FIG. 5) [2] | perimeter size of remaining scratch area (mean value) (U2-OS cells) [μm] | scratch width reduction (U2-OS cells) [%] | wound closure in scratch assay (FIG. 2) (U2-OS cells) | further results
CC(C)c1ccc2c(c1)c(SC(C)(C)C)c(CC(C)(C)C(=O)O)n2Cc1ccc(Cl)cc1 [MK-886] | significantly reduced | – | – | – | – | effect on the Axolotl epithelial cells compared with NDGA (epithelial Axolotl cells; treatment of MK-886): equal effect
CC(Cc1ccc(O)c(O)c1)C(C)Cc1ccc(O)c(O)c1 (stereo not drawn) [NDGA] | significantly reduced | – | – | – | – | –
CC(Cc1ccc(O)c(O)c1)C(C)Cc1ccc(O)c(O)c1 (stereo not drawn) [NHGA] | – | – | – | – | – | scratch area (mean value) ([1]; cell populations expressing AmbLOXe, overnight treatment with NHGA): 4428.33 μm; migration behaviour compared to the solvent treated monolayers ([1]; cells expressing huLOX, overnight treatment with NHGA): no significant differences; migration behaviour compared to the solvent treated monolayers ([1]; empty vector transfected cells, overnight treatment with NHGA): no significant differences
B1 | – | significant reduction | 517.46 | 89.94 | substantially completed | wound size ([2]; day 3): reduced dramatically; wound size ([2]; day 7): reduced dramatically; measured wound scratch (mean value) ([1]; solvent treated cell populations expressing AmbLOXe): 3388.99 μm; remaining scratch perimeter size [3]: significantly smaller
B2 | – | comparable with the control groups | 2086.86 | 56.75 | has not finished yet | –
